In the supplement of paper PMC11316812:
± gives the standard deviation of the averaged measurements.

What was measured:
MCF7 = assay: percentage of EdU-negative (G0-arrested) nuclei per well, 72 h; higher = more G0 arrest; conditions: reference: sequence is the full UniProt precursor, the tested protein was the secreted form or ectodomain
hTERT-HMEC = assay: as above; conditions: reference: sequence is the full UniProt precursor, the tested protein was the secreted form or ectodomain
[1] = protein concentration 0.0237143 µM
[2] = protein concentration 0.237143 µM
[3] = protein concentration 0.0085 µM
[4] = protein concentration 0.0111429 µM
[5] = protein concentration 0.111429 µM
[6] = protein concentration 0.00828571 µM
[7] = protein concentration 0.0828571 µM
[8] = protein concentration 0.01525 µM
[9] = protein concentration 0.1525 µM
[10] = protein concentration 0.0225 µM
[11] = protein concentration 0.0055 µM
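Also: secreted proteins added to cultured cells, EdU pulse at the end, nuclei found by Hoechst imaging, EdU status from nuclear versus surrounding ring intensity ratio, PBS as neutral control.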

MVWRVPPFLLPILFLASHVGAAVDLTLLANLRLTDPQRFFLTCVSGEAGAGRGSDAWGPPLLLEKDDRIVRTPPGPPLRLARNGSHQVTLRGFSKPSDLVGVFSCVGGAGARRTRVIYVHNSPGAHLLPDKVTHTVNKGDTAVLSARVHKEKQTDVIWKSNGSYFYTLDWHEAQDGRFLLQLPNVQPPSSGIYSATYLEASPLGSAFFRLIVRGCGAGRWGPGCTKECPGCLHGGVCHDHDGECVCPPGFTGTRCEQACREGRFGQSCQEQCPGISGCRGLTFCLPDPYGCSCGSGWRGSQCQEACAPGHFGADCRLQCQCQNGGTCDRFSGCVCPSGWHGVHCEKSDRIPQILNMASELEFNLETMPRINCAAAGNPFPVRGSIELRKPDGTVLLSTKAIVEPEKTTAEFEVPRLVLADSGFWECRVSTSGGQDSRRFKVNVKVPPVPLAAPRLLTKQSRQLVVSPLVSFSGDGPISTVRLHYRPQDSTMDWSTIVVDPSENVTLMNLRPKTGYSVRVQLSRPGEGGEGAWGPPTLMTTDCPEPLLQPWLEGWHVEGTDRLRVSWSLPLVPGPLVGDGFLLRLWDGTRGQERRENVSSPQARTALLTGLTPGTHYQLDVQLYHCTLLGPASPPAHVLLPPSGPPAPRHLHAQALSDSEIQLTWKHPEALPGPISKYVVEVQVAGGAGDPLWIDVDRPEETSTIIRGLNASTRYLFRMRASIQGLGDWSNTVEESTLGNGLQAEGPVQESRAAEEGLDQQLILAVVGSVSATCLTILAALLTLVCIRRSCLHRRRTFTYQSGSGEETILQFSSGTLTLTRRPKLQPEPLSYPVLEWEDITFEDLIGEGNFGQVIRAMIKKDGLKMNAAIKMLKEYASENDHRDFAGELEVLCKLGHHPNIINLLGACKNRGYLYIAIEYAPYGNLLDFLRKSRVLETDPAFAREHGTASTLSSRQLLRFASDAANGMQYLSEKQFIHRDLAARNVLVGENLASKIADFGLSRGEEVYVKKTMGRLPVRWMAIESLNYSVYTTKSDVWSFGVLLWEIVSLGGTPYCGMTCAELYEKLPQGYRMEQPRNCDDEVYELMRQCWRDRPYERPPFAQIALQLGRMLEARKAYVNMSLFENFTYAGIDATAEEA
percentage of EdU-negative (MCF7; [1]): 23.1 ± 1.1%
percentage of EdU-negative (MCF7; [2]): 26.39 ± 0.034%
percentage of EdU-negative (hTERT-HMEC; [1]): 5.57 ± 1.2%
percentage of EdU-negative (hTERT-HMEC; [2]): 5.36 ± 0.036%

MWAGLLLRAACVALLLPGAPARGYTGRKPPGHFAAERRRLGPHVCLSGFGSGCCPGWAPSMGGGHCTLPLCSFGCGSGICIAPNVCSCQDGEQGATCPETHGPCGEYGCDLTCNHGGCQEVARVCPVGFSMTETAVGIRCTDIDECVTSSCEGHCVNTEGGFVCECGPGMQLSADRHSCQDTDECLGTPCQQRCKNSIGSYKCSCRTGFHLHGNRHSCVDVNECRRPLERRVCHHSCHNTVGSFLCTCRPGFRLRADRVSCEAFPKAVLAPSAILQPRQHPSKMLLLLPEAGRPALSPGHSPPSGAPGPPAGVRTTRLPSPTPRLPTSSPSAPVWLLSTLLATPVPTASLLGNLRPPSLLQGEVMGTPSSPRGPESPRLAAGPSPCWHLGAMHESRSRWTEPGCSQCWCEDGKVTCEKVRCEAACSHPIPSRDGGCCPSCTGCFHSGVVRAEGDVFSPPNENCTVCVCLAGNVSCISPECPSGPCQTPPQTDCCTCVPVRCYFHGRWYADGAVFSGGGDECTTCVCQNGEVECSFMPCPELACPREEWRLGPGQCCFTCQEPTPSTGCSLDDNGVEFPIGQIWSPGDPCELCICQADGSVSCKRTDCVDSCPHPIRIPGQCCPDCSAGCTYTGRIFYNNETFPSVLDPCLSCICLLGSVACSPVDCPITCTYPFHPDGECCPVCRDCNYEGRKVANGQVFTLDDEPCTRCTCQLGEVSCEKVPCQRACADPALLPGDCCSSCPDSLSPLEEKQGLSPHGNVAFSKAGRSLHGDTEAPVNCSSCPGPPTASPSRPVLHLLQLLLRTNLMKTQTLPTSPAGAHGPHSLALGLTATFPGEPGASPRLSPGPSTPPGAPTLPLASPGAPQPPPVTPERSFSASGAQIVSRWPPLPGTLLTEASALSMMDPSPSKTPITLLGPRVLSPTTSRLSTALAATTHPGPQQPPVGASRGEESTM [Q96DN2]
percentage of EdU-negative (MCF7; [3]): 25.5 ± 1.1%
percentage of EdU-negative (MCF7; protein concentration 0.085 µM): 26.4 ± 1.8%
percentage of EdU-negative (hTERT-HMEC; [3]): 4.9939 ± 0.0014%
percentage of EdU-negative (hTERT-HMEC; protein concentration 0.085 µM): 5.36 ± 0.4%

MWAPRCRRFWSRWEQVAALLLLLLLLGVPPRSLALPPIRYSHAGICPNDMNPNLWVDAQSTCRRECETDQECETYEKCCPNVCGTKSCVAARYMDVKGKKGPVGMPKEATCDHFMCLQQGSECDIWDGQPVCKCKDRCEKEPSFTCASDGLTYYNRCYMDAEACSKGITLAVVTCRYHFTWPNTSPPPPETTMHPTTASPETPELDMAAPALLNNPVHQSVTMGETVSFLCDVVGRPRPEITWEKQLEDRENVVMRPNHVRGNVVVTNIAQLVIYNAQLQDAGIYTCTARNVAGVLRADFPLSVVRGHQAAATSESSPNGTAFPAAECLKPPDSEDCGEEQTRWHFDAQANNCLTFTFGHCHRNLNHFETYEACMLACMSGPLAACSLPALQGPCKAYAPRWAYNSQTGQCQSFVYGGCEGNGNNFESREACEESCPFPRGNQRCRACKPRQKLVTSFCRSDFVILGRVSELTEEPDSGRALVTVDEVLKDEKMGLKFLGQEPLEVTLLHVDWACPCPNVTVSEMPLIIMGEVDGGMAMLRPDSFVGASSARRVRKLREVMHKKTCDVLKEFLGLH [Q8TEU8]
percentage of EdU-negative (MCF7; [4]): 25.8 ± 3%
percentage of EdU-negative (MCF7; [5]): 28.02 ± 0.15%
percentage of EdU-negative (hTERT-HMEC; [4]): 5.48 ± 1.1%
percentage of EdU-negative (hTERT-HMEC; [5]): 6.03 ± 0.2%

MWAQLLLGMLALSPAIAEELPNYLVTLPARLNFPSVQKVCLDLSPGYSDVKFTVTLETKDKTQKLLEYSGLKKRHLHCISFLVPPPAGGTEEVATIRVSGVGNNISFEEKKKVLIQRQGNGTFVQTDKPLYTPGQQVYFRIVTMDSNFVPVNDKYSMVELQDPNSNRIAQWLEVVPEQGIVDLSFQLAPEAMLGTYTVAVAEGKTFGTFSVEEYVLPKFKVEVVEPKELSTVQESFLVKICCRYTYGKPMLGAVQVSVCQKANTYWYREVEREQLPDKCRNLSGQTDKTGCFSAPVDMATFDLIGYAYSHQINIVATVVEEGTGVEANATQNIYISPQMGSMTFEDTSNFYHPNFPFSGKIRVRGHDDSFLKNHLVFLVIYGTNGTFNQTLVTDNNGLAPFTLETSGWNGTDVSLEGKFQMEDLVYNPEQVPRYYQNAYLHLRPFYSTTRSFLGIHRLNGPLKCGQPQEVLVDYYIDPADASPDQEISFSYYLIGKGSLVMEGQKHLNSKKKGLKASFSLSLTFTSRLAPDPSLVIYAIFPSGGVVADKIQFSVEMCFDNQVSLGFSPSQQLPGAEVELQLQAAPGSLCALRAVDESVLLLRPDRELSNRSVYGMFPFWYGHYPYQVAEYDQCPVSGPWDFPQPLIDPMPQGHSSQRSIIWRPSFSEGTDLFSFFRDVGLKILSNAKIKKPVDCSHRSPEYSTAMGAGGGHPEAFESSTPLHQAEDSQVRQYFPETWLWDLFPIGNSGKEAVHVTVPDAITEWKAMSFCTSQSRGFGLSPTVGLTAFKPFFVDLTLPYSVVRGESFRLTATIFNYLKDCIRVQTDLAKSHEYQLESWADSQTSSCLCADDAKTHHWNITAVKLGHINFTISTKILDSNEPCGGQKGFVPQKGRSDTLIKPVLVKPEGVLVEKTHSSLLCPKGKVASESVSLELPVDIVPDSTKAYVTVLGDIMGTALQNLDGLVQMPSGCGEQNMVLFAPIIYVLQYLEKAGLLTEEIRSRAVGFLEIGYQKELMYKHSNGSYSAFGERDGNGNTWLTAFVTKCFGQAQKFIFIDPKNIQDALKWMAGNQLPSGCYANVGNLLHTAMKGGVDDEVSLTAYVTAALLEMGKDVDDPMVSQGLRCLKNSATSTTNLYTQALLAYIFSLAGEMDIRNILLKQLDQQAIISGESIYWSQKPTPSSNASPWSEPAAVDVELTAYALLAQLTKPSLTQKEIAKATSIVAWLAKQHNAYGGFSSTQDTVVALQALAKYATTAYMPSEEINLVVKSTENFQRTFNIQSVNRLVFQQDTLPNVPGMYTLEASGQGCVYVQTVLRYNILPPTNMKTFSLSVEIGKARCEQPTSPRSLTLTIHTSYVGSRSSSNMAIVEVKMLSGFSPMEGTNQLLLQQPLVKKVEFGTDTLNIYLDELIKNTQTYTFTISQSVLVTNLKPATIKVYDYYLPDEQATIQYSDPCE [A8K2U0]
percentage of EdU-negative (MCF7; [6]): 23.3 ± 1.1%
percentage of EdU-negative (MCF7; [7]): 29.5 ± 1.8%
percentage of EdU-negative (hTERT-HMEC; [6]): 5.09 ± 0.24%
percentage of EdU-negative (hTERT-HMEC; [7]): 5.43 ± 0.39%

MWATLPLLCAGAWLLGVPVCGAAELCVNSLEKFHFKSWMSKHRKTYSTEEYHHRLQTFASNWRKINAHNNGNHTFKMALNQFSDMSFAEIKHKYLWSEPQNCSATKSNYLRGTGPYPPSVDWRKKGNFVSPVKNQGACGSCWTFSTTGALESAIAIATGKMLSLAEQQLVDCAQDFNNHGCQGGLPSQAFEYILYNKGIMGEDTYPYQGKDGYCKFQPGKAIGFVKDVANITIYDEEAMVEAVALYNPVSFAFEVTQDFMMYRTGIYSSTSCHKTPDKVNHAVLAVGYGEKNGIPYWIVKNSWGPQWGMNGYFLIERGKNMCGLAACASYPIPLV
percentage of EdU-negative (MCF7; [8]): 27 ± 2.4%
percentage of EdU-negative (MCF7; [9]): 29.3 ± 4.1%
percentage of EdU-negative (hTERT-HMEC; [8]): 5.31 ± 0.13%
percentage of EdU-negative (hTERT-HMEC; [9]): 8.87 ± 0.59%

MWCIVLFSLLAWVYAEPTMYGEILSPNYPQAYPSEVEKSWDIEVPEGYGIHLYFTHLDIELSENCAYDSVQIISGDTEEGRLCGQRSSNNPHSPIVEEFQVPYNKLQVIFKSDFSNEERFTGFAAYYVATDINECTDFVDVPCSHFCNNFIGGYFCSCPPEYFLHDDMKNCGVNCSGDVFTALIGEIASPNYPKPYPENSRCEYQIRLEKGFQVVVTLRREDFDVEAADSAGNCLDSLVFVAGDRQFGPYCGHGFPGPLNIETKSNALDIIFQTDLTGQKKGWKLRYHGDPMPCPKEDTPNSVWEPAKAKYVFRDVVQITCLDGFEVVEGRVGATSFYSTCQSNGKWSNSKLKCQPVDCGIPESIENGKVEDPESTLFGSVIRYTCEEPYYYMENGGGGEYHCAGNGSWVNEVLGPELPKCVPVCGVPREPFEEKQRIIGGSDADIKNFPWQVFFDNPWAGGALINEYWVLTAAHVVEGNREPTMYVGSTSVQTSRLAKSKMLTPEHVFIHPGWKLLEVPEGRTNFDNDIALVRLKDPVKMGPTVSPICLPGTSSDYNLMDGDLGLISGWGRTEKRDRAVRLKAARLPVAPLRKCKEVKVEKPTADAEAYVFTPNMICAGGEKGMDSCKGDSGGAFAVQDPNDKTKFYAAGLVSWGPQCGTYGLYTRVKNYVDWIMKTMQENSTPRED
percentage of EdU-negative (MCF7; [10]): 23.9 ± 1.2%
percentage of EdU-negative (MCF7; protein concentration 0.225 µM): 24.2 ± 1.2%
percentage of EdU-negative (hTERT-HMEC; [10]): 4.97 ± 0.22%
percentage of EdU-negative (hTERT-HMEC; protein concentration 0.225 µM): 6.85 ± 3.7%

MWDLVLSIALSVGCTGAVPLIQSRIVGGWECEKHSQPWQVAVYSHGWAHCGGVLVHPQWVLTAAHCLKKNSQVWLGRHNLFEPEDTGQRVPVSHSFPHPLYNMSLLKHQSLRPDEDSSHDLMLLRLSEPAKITDVVKVLGLPTQEPALGTTCYASGWGSIEPEEFLRPRSLQCVSLHLLSNDMCARAYSEKVTEFMLCAGLWTGGKDTCGGDSGGPLVCNGVLQGITSWGPEPCALPEKPAVYTKVVHYRKWIKDTIAANP
percentage of EdU-negative (MCF7; [10]): 23.8 ± 1.7%
percentage of EdU-negative (MCF7; protein concentration 0.225 µM): 24.8 ± 1.2%
percentage of EdU-negative (hTERT-HMEC; [10]): 4.38 ± 0.36%
percentage of EdU-negative (hTERT-HMEC; protein concentration 0.225 µM): 5.65 ± 0.28%

MWGLKVLLLPVVSFALYPEEILDTHWELWKKTHRKQYNNKVDEISRRLIWEKNLKYISIHNLEASLGVHTYELAMNHLGDMTSEEVVQKMTGLKVPLSHSRSNDTLYIPEWEGRAPDSVDYRKKGYVTPVKNQGQCGSCWAFSSVGALEGQLKKKTGKLLNLSPQNLVDCVSENDGCGGGYMTNAFQYVQKNRGIDSEDAYPYVGQEESCMYNPTGKAAKCRGYREIPEGNEKALKRAVARVGPVSVAIDASLTSFQFYSKGVYYDESCNSDNLNHAVLAVGYGIQKGNKHWIIKNSWGENWGNKGYILMARNKNNACGIANLASFPKM
percentage of EdU-negative (MCF7; [11]): 25.3 ± 2.9%
percentage of EdU-negative (MCF7; protein concentration 0.055 µM): 27.4 ± 1.2%
percentage of EdU-negative (hTERT-HMEC; [11]): 4.75 ± 0.94%
percentage of EdU-negative (hTERT-HMEC; protein concentration 0.055 µM): 4.78 ± 0.37%
